One test has as its target T1, rhOX40-Avi-His (human, UniProt P43489 29-214).
T1 construct: range 29-214; Recombinant protein made from plasmid pCD-OX40-Avi-His; also called OX40抗原; 抗原蛋白OX40; not shown: Avi tag; His tag
T1 sequence (looked up): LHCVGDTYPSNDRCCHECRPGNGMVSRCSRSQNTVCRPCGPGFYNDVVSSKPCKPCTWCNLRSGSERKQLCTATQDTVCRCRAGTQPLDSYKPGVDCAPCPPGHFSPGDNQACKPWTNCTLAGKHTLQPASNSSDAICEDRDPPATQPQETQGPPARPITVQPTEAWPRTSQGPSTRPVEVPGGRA
Kind of test: ELISA on coated rhOX40-Avi-His. (ELISA stands for enzyme-linked immunosorbent assay.)

For the next test, the target named is T2, rhOX40-Avi-His-bio (human, UniProt P43489 29-214, biotin covalently attached to the Avi tag by BirA).
T2 construct: range 29-214; Biotinylated form of rhOX40-Avi-His, captured on SA chip in SPR; also called 生物素标记的抗原; not shown: Avi tag (biotinylated); His tag
T2 sequence (looked up): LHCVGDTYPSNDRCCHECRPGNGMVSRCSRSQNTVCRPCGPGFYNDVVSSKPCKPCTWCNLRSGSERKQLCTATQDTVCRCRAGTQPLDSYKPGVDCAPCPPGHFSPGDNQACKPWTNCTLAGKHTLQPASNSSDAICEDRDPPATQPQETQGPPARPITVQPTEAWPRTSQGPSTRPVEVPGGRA
Kind of test: SPR (T200), biotinylated rhOX40-Avi-His-bio captured on SA chip, D7-Fc as analyte.

Test [1] addresses T3, human OX40 expressed on Jurkat cells (Jurkat-OX40-NFκB-Luc) (human, UniProt P43489 29-277).
T3 construct: whole, on cells; also called Jurkat-OX40-NFκB-21C6; 表达OX40抗原的Jurkat细胞系
T3 sequence (looked up): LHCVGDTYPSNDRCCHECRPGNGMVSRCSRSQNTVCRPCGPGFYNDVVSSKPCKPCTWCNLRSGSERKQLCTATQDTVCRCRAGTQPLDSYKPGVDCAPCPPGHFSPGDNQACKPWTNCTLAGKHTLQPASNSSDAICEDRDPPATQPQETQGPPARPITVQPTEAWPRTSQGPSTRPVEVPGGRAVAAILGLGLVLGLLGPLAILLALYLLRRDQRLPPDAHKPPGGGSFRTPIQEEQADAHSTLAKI
As to the kind of experiment: flow cytometry on Jurkat cells expressing OX40, anti-human Fc-FITC. (A flow cytometer gives signals particle by particle.)

B1: C7-Fc (Fc fusion)
chain: DVQLVESGGGLVQPGGSLRLSCAASGSIPSDTAMYWFRQAPGKGREWVSVIWGSGVTYYADSVKGRFTISRDNAKNTVYLQMNSLRAEDTAVYYCARTGLGRAYWGQGTQVTVSA
notes: not shown: IgG1 Fc region, from human
B1: the binding result in the test with rhOX40-Avi-His is “binds”.

B2: D7-Fc (Fc fusion)
chain: DVQLVESGGGLVQPGGSLRLSCAASGFTASIYGMRWFRQAPGKGRELVAGIVDAGSATYYADSVKGRFTISRDNAKNTVYLQMNSLRAEDTAVYYCARGNHEGEVGLDYWGQGTQVTVSA
notes: as for B1
In the case of B2, the Kd with rhOX40-Avi-His-bio was around 16.8 nM.

B3: D2-Fc (Fc fusion)
chain: DVQLVESGGGLVQPGGSLRLSCAASGLTSSLYIWGWFRQAPGKGREWVSTIWDADVTDYADSVKGRFTISRDNAKNTVYLQMNSLRAEDTAVYYCARRDFDSLADGLDYWGQGTQVTVSA
notes: as for B1
As for B3, the binding result (in test [1]; with rhOX40-Avi-His) was “binds” each time.

B4: D12-Fc (Fc fusion)
chain: DVQLVESGGGLVQPGGSLRLSCAASGRQFGSYAMSWFRQAPGKGREWVSTIDSAGGSTNYADSVKGRFTISRDNAKNTVYLQMNSLRAEDTAVYYCARLIDWYCIDYFDYWGQGTQVTVSA
notes: as for B1
As to B4, in the test with rhOX40-Avi-His, the binding result is reported as “binds”.

B5: A1-Fc (Fc fusion)
chain: DVQLVESGGGLVQPGGSLRLSCAASGFSYNRTDIRWFRQAPGKGRELVAGIANWGGTTYYADSVKGRFTISRDNAKNTVYLQMNSLRAEDTAVYYCARRRYECVDWIVDPWWDYWGQGTQVTVSA
notes: as for B1
With B5, the binding result (in test [1]; in the test with rhOX40-Avi-His) was “binds” throughout.

B6: D1-Fc (Fc fusion)
chain: DVQLVESGGGLVQPGGSLRLSCAASGRTASGYTIGWFRQAPGKGRELVSAINRAGSATHYADSVKGRFTISRDNAKNTVYLQMNSLRAEDTAVYYCARSGRWGRYWLAYWGQGTQVTVSA
notes: as for B1
On to B6, for which the binding result (in test [1]; in the test with rhOX40-Avi-His) was “binds” throughout.

The term Kd denotes the equilibrium constant for the complex coming apart. A lower Kd goes with higher affinity.

Source of the values: patent CN114656564A (ANHUI ANKE BIOLOGICAL ENG GROUP CO LTD, dated 2022).
